Measured values: the supplement of paper PMC9170038

What was measured:
MS2 coat protein [1] = assay: apparent KD of MS2 coat protein, switch ON state; designed switch direction (-1 OFF switch, 1 ON switch): -1; higher = weaker reporter binding; conditions: FMN input: 0 or 200 uM; Eterna round: R93 (includes R88 designs)
Method in brief: (§1)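 Illumina sequencing clusters served as templates for on-chip transcription of the designed RNA switches. SNAP-549-labelled MS2 coat protein was then titrated in twofold steps from 0.7 or 1.5 nM to 3 µM, allowing 0.8–1.5 h per step at first and 10–20 min per step later. The buffer held 100 mM Tris-HCl pH 7.5, 80 mM KCl and 4 mM MgCl2, without or with constant ligand. Apparent KD is the median per design of normalised cluster binding-curve fits.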

MS2 coat protein [2] = assay: apparent KD of MS2 coat protein, switch OFF state (with FMN for OFF switches, without FMN for ON switches); designed switch direction (-1 OFF switch, 1 ON switch): -1; higher = weaker reporter binding; conditions: FMN input: 0 or 200 uM; Eterna round: R93 (includes R88 designs)
Method in brief: as §1

Row | Sequence | apparent KD of MS2 coat protein (MS2 coat protein [1]) [nM] | apparent KD of MS2 coat protein (MS2 coat protein [2]) [nM]
1 | AAAAAACAUGAGGAUCACCCAUGUCAGGAUAUGCUCAGCAAAAAAAAAAAAAAGAACGGUAGAAGGGACAGAAA [Bilbo Confounded 22 - Jieux - Exclusion 1] | 56.1 | 50.7
2 | UAAAAACAUGAGGAUCACCCAUGUAAGGAUAUGCUGAAAAACACGGAAAAAACGUGCAGCAGAAGGUACAAAAU [Mat - Exclusion 1 - Eli mod - D98] | 19 | 47.6
3 | AGGAAACAUGAGGAUCACCCAUGUGAGGAUAUGAGAAAGAAAAGAAAAGAAAGAAGAAUCAGAAGGCACAAGAA [Raneb] | 42.8 | 46.6
4 | UACGUAUGAGGAUAUACAAACAGAAAAAUCAGACGUAAGUGACAUGAGGAUCACCCAUGUAGAAGGCAUAUGCA [JR_Exc002_Sub906] | 26.9 | 19.7
5 | AAAAAACAUGAGGAUCACCCAUGUCAGGAUAUACAAAAAUAAAUAAAAAUAAAAUAAAGUAGAAGGGACAAAAA [May 9] | 28.9 | 36.9
6 | GCAAAGUGAGGAUAUACGCGAACAAAAAAAAAAAAGAAAGCGUAGAAGGCACAUGAGGAUCACCCAUGUCCAGC [Alfred 64% 2] | 23.5 | 25.1
7 | AAGCCACAUGAGGAUCACCCAUGUAAGGAUAUGAACGAAAAUAAAUAAAAAUAAAAGUUCAGAAGGUACAAAAA [66%, Wbt, 23] | 27.1 | 25.3
8 | AAAAAGUGAGGAUAUGCAGUGUCCUGUAGACGCGAGCACUUGUAGAAGGCACAUGAGGAUCACCCAUGUUUAAA [EX4 Malc#28] | 24 | 22.1
9 | AAAAAGUCAGGAUAUACAGAUAAAAAAACGAAAAAAAAUCUGUAGAAGGGACAUGAGGAUCACCCAUGUAAAAA [Ex 4 May 1] | 61.8 | 40.1
10 | AAGAAGGAAGGAUAUACAUGAAAGAAAGAAAAGAAAAGAAAACAUGAGGAUCACCCAUGUAGAAGGUCCUAGAA [EteRNA is fun!] | 39.6 | 80.5
11 | AACAAACAUGAGGAUCACCCAUGUAAGGAUAUGCGACAAAAACAAAAAACAAAAAAAAGCAGAAGGUACAACAA [Amethyst 100] | 23.4 | 30.4
12 | CUCUUGUAAGGAUAUGACUACAUAAAAAAAAAAAAAUGUAGUCAGAAGGUACAUGAGGAUCACCCAUGUACUAA [Brourd - Exclusion 4 - Sub 2] | 20.8 | 26.2
13 | AAAGGACGAGGAUAUACAUGAGGAUCACCCAUGUAAAAAGCAUAAUAAAAGAACUUAUGUAGAAGGCGUCCAAA [69%, Moding Meechl, 5] | 41 | 189
14 | GAAAAGAGAGGAUAUACUUUGGGAAAAGAAAAGAUGAUGUUACAUGAGGAUCACCCAUGUAGAAGGCUCAAAAA [Mat - Exclusion 2 - Mod - D156] | 27.1 | 44.6
15 | AACAGACAUGAGGAUCACCCAUGUGAGGAUAUCCAAAACGAUAAAACAAGAAUGACAGGGAGAAGGCACAGCAA [JR_Exc001_Sub008] | 65.2 | 52.2
16 | CCGAGACAUGAGGAUCACCCAUGUGAGGAUAUAGGUGUAUGCUAAAAAAAGUUAACAACUAGAAGGCACAGAGG [JR_Exc001_Sub308] | 55.7 | 129
17 | AAAAAACAUGAGGAUCACCCAUGUGAGGAUAUAGGAAAAAAAAAAAAAAAAAAAAAAACUAGAAGGCACAAAAA [Gess I got it^^] | 35.2 | 41.7

Row | Sequence | apparent KD of MS2 coat protein (MS2 coat protein [1]) [nM] | apparent KD of MS2 coat protein (MS2 coat protein [2]) [nM]
18 | GCUGGGCAAGGAUAUACAUGAGGAUCACCCAUGUGAGAGAAAAAAGUGAGAAAGAAAAGUAGAAGGUGCUUAGG [salish99-ex3-119] | 45.8 | 77.9
19 | AAAAAGCGAGGAUAUACAUGAGGAUCACCCAUGUCAAACGGUAAGACCGCAGGAAACAGUAGAAGGCGCAAAAA [Exclusion3-03] | 58.3 | 91.1
20 | AAAAGGUGAGGAUAUAGGAAAAUAAAAUAAAAUAAAAUAAACUAGAAGGCACAUGAGGAUCACCCAUGUAAUAA [LROPPY Exclusion 4 - v03_deltaG=3.54 break up the As] | 25.1 | 17
21 | AACAAACAUGAGGAUCACCCAUGUAAGGAUAUACGAAACAAACAAACAAACAAACAAAGUAGAAGGUACAGGAA [Exclusive 1] | 17.3 | 16.3
22 | AACCGACAUGAGGAUCACCCAUGUAAGGAUAUGCAUCCUUCGGCCCGGACCAGAGGAAGCAGAAGGUGCAGGGA [Iscegebia] | 43.1 | 41.2
23 | AAAAAGGGAGGAUAUACAUGAGGAUCACCCAUGUGAAAGACGAAAAAGAGUCUAAAGGGUAGAAGGCCCAAAAA [65%, Moding Exclusion3-cac2, 10] | 51.1 | 49.2
24 | GAAAAGUGAGGAUAUUCGGAUAGGAAAACGAAAACCUAUCCGAAGAAGGCACAUGAGGAUCACCCAUGUGGAAA [Mat - Exaclusion 4 - Eli mod - D45] | 30.1 | 31.5
25 | CUCUAGUCAGGAUAUCCAAGAAAAGAAGAGAAAGAAAAGAAGGAGAAGGGACAUGAGGAUCACCCAUGUAAGAA [EteRNA is fun!] | 75.9 | 46.4
26 | AAGAAGUCAGGAUAUGCUGCUCGUCACAAAAGUGAUGAGUAGCAGAAGGGACAUGAGGAUCACCCAUGUAAAAA [Opal 33] | 49.1 | 42
27 | GAAGAACAUGAGGAUCACCCAUGUCAGGAUAUGAGCAAGGGAAUAAUAACUUGCGGAAUCAGAAGGGACAAGAA [Ex 1 May 51] | 31.7 | 43.6
28 | GCUGUGGUAGGAUAUACAUGAGGAUCACCCAUGUGAGAGAAAAAAGUGAGAAAGAAAAGUAGAAGGACCGUAGG [salish99-ex3-101] | 49 | 78.9
29 | AAGAAUGGAGGAUAUACAUAAAAGAAAGAAAAGAAAAGAAAACAUGAGGAUCACCCAUGUAGAAGGCCAUAGAA [EteRNA is fun!] | 24.6 | 15.3
30 | CUCUUGUGAGGAUAUGCAAGAAAAGAAAAGAAAGAAAAGAAGCAGAAGGCACAUGAGGAUCACCCAUGUAAGAA [EteRNA is fun!] | 53.3 | 25.9
31 | UUGGGACAUGAGGAUCACCCAUGUAAGGAUAUUGGCGCGCCGGCUCUGUCUGUUCCGCCGAGAAGGUACACGUU [Exclusion I] | 45.5 | 102
32 | AACUGACAUGAGGAUCACCCAUGUCAGGAUAUGCUUCAUAAAAACAAACAAAAAUGAUGCAGAAGGGACAUGGA [Design 30 :P Sub-opt 6] | 19.6 | 32.3
33 | AGCUAGUCAGGAUAUACGCAAACGAACGAAGCAGAGAAGGGACAUGAGGAUCACCCAUGUAGAAGGGACUAGCA [Diamond 31] | 28.8 | 84.9
34 | AAAUUGUCAGGAUAUCGUAUAACUGGGAAAACCAGGAGAUACGAGAAGGGACAUGAGGAUCACCCAUGUAAAAC [May 94] | 51.6 | 65.8
